Assay results published in PMC10282599, “Al-induced CsUGT84J2 enhances flavonol and auxin accumulation to promote root growth in tea plants” (Horticulture Research, 2023).

What was measured:
Experiment in all cases: HPLC of glucoside product
Assay type in all cases: biochemical, Camellia sinensis
[1] = substrate: O=C(O)/C=C/c1ccc(O)cc1; conditions: UDP-glucose as sugar donor; optimum pH 6.5, 40 °C; pH 6.5; 40.0 °C
[2] = substrate: O=C(O)Cc1c[nH]c2ccccc12; conditions: UDP-glucose as sugar donor; optimum pH 6.5, 30 °C; pH 6.5; 30.0 °C
[3] = substrate: O=c1c(O)c(-c2ccc(O)cc2)oc2cc(O)cc(O)c12; conditions: UDP-glucose as sugar donor; optimum pH 9.5, 40 °C; pH 9.5; 40.0 °C

B1: rCsUGT84J2 (TEA000239) (Camellia sinensis) (protein)
chain: MAAMEKKEEIHVLMVAFSSQGHINPMLRLAKRLHSKGLHVTLATTEIARHRMLTSSSATTTAVAANSIDGISLAFFSDGLSLDYDRKTNLDHYMDSLGRAGPANLSSIILHHHSHGGRKFSCIVTNPFIPWAADVAAEHGIPCALLWIQPCSLYSIYYRFYNHLNQFPSSANPNMSVELPGLPLLNTEDLPSFVLPSNPFGSFPKLFCGLFQNMQKMKWVLANSFHELESQAIDSMFDIHPVLPIGPLVPPSILGEDQAVDAGVEMWKSEDNCIEWLDQQQPNSVIYVSFGSVVILSPLQMESIATGLKNCNRPFLWVVKKSDYTAKEGEGQLPLGFLEETKGRGLVVQWSPQIKVLMNPAVGCFLTHCGWNSMLETIAAGVPVIAYPQWTDQPTNAKLMAEVLRVGVRLRPNQDGVVTNEEVERRIEDVMCGPEAEEFREKAAELKVAARVAVADGGSSDRNIQLFVDEIIGDSST
- Km [1]: 0.243 µM
- Km [2]: 0.522 µM
- Km [3]: 0.127 µM
